Assay results from IntAct's records for PubMed 16619031.

B1: DNA replication regulator SLD2 (Saccharomyces cerevisiae), P34252 (parent)
chain: MYSFELDKLKIELKTWEHDFIDKNKREPTRDDIKSLRTVRQMYKQYSTLKKKQSLQRQKVDTQESVELPAHKKDHDEVVEIGPTPQVYGKAISIFDMNLSPIKPIYMTFTNNIDVNNDNSKTISNESSPRKTILLKSSPADRTLVAEPISSVKRQLNFQMLNASSTRTPTSSPCKNRNGKLVEIKKCSPTINPPLESGKPSGYYGPNSPLKLDEENIHLNISLNSSTKRRLQIAYPSLQKTPSKDQADISTSFSPSPLIRRPLTKSLIELAREHTEIVKEFGVLQEEDIEEEEEGEEGENGYDEKNHEDDFGLEDELIRPKVVKDIFQEDDDNDDSQAREDTFIRKRPKRRKVIRRLRDNDPETETAGFERDVHKELVKLKRRKVAEFLGSTSQISDTEFEHDPEASSGVVSSEQKPTAKRKGRKKYNLVSNNFRRLKLPKKNRFSNGRWGRR
partner: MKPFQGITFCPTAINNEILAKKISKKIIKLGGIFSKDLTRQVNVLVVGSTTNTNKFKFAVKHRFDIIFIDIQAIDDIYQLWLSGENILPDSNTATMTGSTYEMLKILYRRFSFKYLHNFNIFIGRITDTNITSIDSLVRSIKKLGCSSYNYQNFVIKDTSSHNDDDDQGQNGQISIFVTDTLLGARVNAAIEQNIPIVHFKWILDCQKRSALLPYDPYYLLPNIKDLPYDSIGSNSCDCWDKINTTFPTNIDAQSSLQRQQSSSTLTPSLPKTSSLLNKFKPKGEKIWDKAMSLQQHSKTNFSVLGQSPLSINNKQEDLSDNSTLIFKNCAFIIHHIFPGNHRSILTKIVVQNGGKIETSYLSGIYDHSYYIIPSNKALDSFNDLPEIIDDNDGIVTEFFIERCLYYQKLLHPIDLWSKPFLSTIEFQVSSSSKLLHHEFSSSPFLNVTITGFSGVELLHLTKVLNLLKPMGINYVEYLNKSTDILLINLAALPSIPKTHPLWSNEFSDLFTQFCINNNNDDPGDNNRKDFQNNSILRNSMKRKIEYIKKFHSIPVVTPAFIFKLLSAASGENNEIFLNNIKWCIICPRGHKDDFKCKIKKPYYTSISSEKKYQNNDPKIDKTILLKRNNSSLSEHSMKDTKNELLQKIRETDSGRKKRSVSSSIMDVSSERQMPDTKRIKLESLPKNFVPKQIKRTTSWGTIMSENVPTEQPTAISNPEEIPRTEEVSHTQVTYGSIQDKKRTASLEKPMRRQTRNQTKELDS

Variants of: B1
Conditions: with dpb11_yeast DPB11, P47027

Effect of a mutation on the interaction, disrupting interaction:
S128A
T168A
S208A
S100A
S172A
T241A

Variants of: B1
Conditions: with dpb11_yeast DPB11, P47027
Remark: another data set of the same source

Effect of a mutation on the interaction, disrupting interaction:
T84A
